As usually defined, the Kd is the free concentration of one partner at which half of the binding sites on the other are occupied at equilibrium, for simple one-to-one binding.

Experiment [1] addresses AAVPHP.eB capsid (recombinant AAVPHP.eB particles) (adeno-associated virus 9 (parental serotype)) (UniProt Q6JC40). Briefly: SPR.
Experiment [2] deals with adeno-associated virus (AAV) 9 capsid (recombinant AAV9 particles) (adeno-associated virus 9, UniProt Q6JC40 1-736). Nature of the experiment: SPR. For orientation: SPR reads the build-up and loss of mass on a sensor chip optically.

B1: soluble AAV receptor (AAVR) extracellular fragment containing PKD1-5 (domain or fragment)
chain: RKNRPPIAIVSPQFQEISLPTTSTVIDGSQSTDDDKIVQYHWEELKGPLREEKISEDTAILKLSKLVPGNYTFSLTVVDSDGATNSTTANLTVNK
For the molecule B1, the Kd in experiment [1] worked out at 274 nM; in experiment [2] it was 138 nM.

These data come from publication PMC9198364 (Molecular Therapy. Methods & Clinical Development, 2022).
